Experimental data as given in publication doi:10.1101/2020.05.30.125013.

B1: MlaB from Acinetobacter baumannii (natural protein)
chain: MVQYLNQELVVSGKIDFENAEQQYQAGLAIIKKQTSFPLIVDLKQLEHGNTLALAVLVQWLRQTPQKSGLHFKNVPEKMLKIIQACHLQEDLHLV

Tests used:
[1] = target: MlaD from Acinetobacter baumannii (Acinetobacter baumannii) (UniProt V5V921); assay: cryo-EM structure
[2] = target: MlaF from Acinetobacter baumannii (Acinetobacter baumannii); assay: cryo-EM structure

Row | Molecule | stoichiometry N [1] | percent of particles with MlaB bound to both MlaF copies [2]
1 | MlaD from Acinetobacter baumannii (from UniProt V5V921 1-226) (natural protein) | 6 | 
2 | B1 |  | 50%
